This is an account of results in article PMC5695104.

This assay addresses recombinant H03-IPSE (Schistosoma haematobium). The assay can be described thus: SDS-PAGE under non-reducing and reducing conditions; 4-20% gradient gel, Coomassie stain and anti-His Western blot; protein purified by IMAC from serum-free culture supernatant; run non-reduced (NR) or reduced (R). On the technique in general: Immunoblotting shows a protein as a band on a membrane.

The stoichiometry N is a count of units in the complex or per binding partner. Take recombinant H03-IPSE (natural protein): the stoichiometry N worked out at 2.
